Laboratory results: the RNAGym collection of RNA variant scans (doi:10.1073/pnas.2313332121)
This sample holds only a part of the variants without activity.

B1: TPR 5TU (parent)
chain: GGAUCUUCUCGAUCUAACAAAAAAGACAAAUCUGCCACAAAGCUUGAGAGCAUCUUCGGAUGCAGAGGCGGCAGCCUUCGGUGGCGCGAUAGCGCCAACGUUCUCAACUAUGACACGCAAAACGCGUGCUCCGUUGAAUGGAGUUUAUCAUG

Variants of: B1
Assay: polymerase ribozyme fitness, log enrichment relative to wild type (log ratio); higher = more active; in vitro selection for triplet polymerase activity
In short: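 Input and output libraries were sequenced on Illumina after a single in vitro selection round, run in triplicate on PCR-built, transcribed mutant libraries of each subunit of a heterodimeric triplet polymerase ribozyme. Selection annealed libraries to a biotinylated primer, the partner subunit and triplets, incubated them frozen at −7 °C, then gel-excised extended constructs for streptavidin-bead capture and RT-PCR. Genotypes with ≥10 input reads and ≥1 read per output were kept. Fitness is the logarithm, taken in base 2, of genotype enrichment divided by wild-type enrichment, using inverse-variance-weighted replicate averages.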
In the case of U6C A21G C27A C54U G80C C87A U109C A147U, the “polymerase ribozyme fitness (log ratio)” value is reported as at most -4.2.
For U7A C32G U33C C87A C96U U101C C116A U145G U146C, the “polymerase ribozyme fitness (log ratio)” value was at most -4.2.
In the case of U6C C76G G124U G128U, the “polymerase ribozyme fitness (log ratio)” value is reported as at most -4.2.
For C5G A37U G83C C129A U145A, the “polymerase ribozyme fitness (log ratio)” value was at most -4.2.
For U7C C8G A20U U55A A66U G88A C99G G143U, the “polymerase ribozyme fitness (log ratio)” value was at most -4.2.
With U6C G48C G59U U145C the “polymerase ribozyme fitness (log ratio)” value was -0.905.
With U6C U55G the “polymerase ribozyme fitness (log ratio)” value was -0.825.
In the case of U7G C72U C87A A98U A138C, the “polymerase ribozyme fitness (log ratio)” value is reported as at most -4.2.
With C5G G59A the “polymerase ribozyme fitness (log ratio)” value was -0.858.
For U6C C27G C32A U53A A142U C149G, the “polymerase ribozyme fitness (log ratio)” value was at most -4.2.
With U6G A17C A37G A52C C54U C96A A122U U134C the “polymerase ribozyme fitness (log ratio)” value was at most -4.2.
For C5U C14G G59C C63U C85U U101G, the “polymerase ribozyme fitness (log ratio)” value was -3.47.
In the case of U6G A12C C35G A60C C75G A110G, the “polymerase ribozyme fitness (log ratio)” value is reported as at most -4.2.
In the case of U6C A40U C51U A52C C99U G112C, the “polymerase ribozyme fitness (log ratio)” value is reported as at most -4.2.
For U6G G50U G83C A120U, the “polymerase ribozyme fitness (log ratio)” value was -0.29.
For C5U U6C C10U G83C, the “polymerase ribozyme fitness (log ratio)” value was -2.89.
With U6A C18U A49C C79A A91G U101C C103A the “polymerase ribozyme fitness (log ratio)” value was at most -4.2.
For C5U C14U C38A C57A A66U G67A G84U A110G, the “polymerase ribozyme fitness (log ratio)” value was at most -4.2.
In the case of C5G U55G A73U, the “polymerase ribozyme fitness (log ratio)” value is reported as -3.69.
With U6G A73G C87U G136U the “polymerase ribozyme fitness (log ratio)” value was -2.92.
With C8A A17G A98G U144A the “polymerase ribozyme fitness (log ratio)” value was at most -4.2.
For U6G C35U A91G A98G, the “polymerase ribozyme fitness (log ratio)” value was -4.08.
For C5G G46C G50C C129U U134C C149U, the “polymerase ribozyme fitness (log ratio)” value was at most -4.2.
In the case of U7G A21G U61G C85U C87A A106C, the “polymerase ribozyme fitness (log ratio)” value is reported as at most -4.2.
In the case of U7G A22G C36A U56G G62U G88A, the “polymerase ribozyme fitness (log ratio)” value is reported as at most -4.2.
For U6G A52G A106C C116A, the “polymerase ribozyme fitness (log ratio)” value was -0.169.
In the case of U6G C96A A122U, the “polymerase ribozyme fitness (log ratio)” value is reported as -0.578.
For U6A G81C G94U A113U C114U U151C, the “polymerase ribozyme fitness (log ratio)” value was at most -4.2.
In the case of U7A A40C C54A G59C C87U, the “polymerase ribozyme fitness (log ratio)” value is reported as at most -4.2.
With C5G U135C the “polymerase ribozyme fitness (log ratio)” value was -2.4.
For U7C U13G A20C U31A C51U U53G C87G A89G C93U U139C A142U G143U G152A, the “polymerase ribozyme fitness (log ratio)” value was at most -4.2.
For U6G A40C U144A, the “polymerase ribozyme fitness (log ratio)” value was 0.287.
With U6G A20U G25A U31G C87A C96U C129A G136A G140C A150C the “polymerase ribozyme fitness (log ratio)” value was at most -4.2.
For U7A G25U A39C A49U C54G C95U U111G, the “polymerase ribozyme fitness (log ratio)” value was at most -4.2.
With U7G C75G G86C the “polymerase ribozyme fitness (log ratio)” value was at most -4.2.
With U7C C35U C87G U104G the “polymerase ribozyme fitness (log ratio)” value was -4.04.
With U7A C32G A66C G68A C87A G128U G136C the “polymerase ribozyme fitness (log ratio)” value was at most -4.2.
With C8A A12G U13G C51A C57A G92U G124C U144C the “polymerase ribozyme fitness (log ratio)” value was at most -4.2.
In the case of U7A A22U U44A C51U G67A G94C C99U G141C, the “polymerase ribozyme fitness (log ratio)” value is reported as at most -4.2.
In the case of C5G U55A C85U C116U, the “polymerase ribozyme fitness (log ratio)” value is reported as -1.06.
With U6A C10A C27G G46C C69A C93U G94C A97C the “polymerase ribozyme fitness (log ratio)” value was at most -4.2.
For U6A A12U G50A C149A, the “polymerase ribozyme fitness (log ratio)” value was at most -4.2.
In the case of U6A C108U U134C, the “polymerase ribozyme fitness (log ratio)” value is reported as -3.33.
With U6A C85U C95A A120G the “polymerase ribozyme fitness (log ratio)” value was -1.78.
In the case of C5U U7G C14G A21C U56G C57A G58C C103A A142U U145C, the “polymerase ribozyme fitness (log ratio)” value is reported as at most -4.2.
In the case of U6A U15G G46C C76U C93G, the “polymerase ribozyme fitness (log ratio)” value is reported as at most -4.2.
With U6G C38U C43U A91U C95G U102G the “polymerase ribozyme fitness (log ratio)” value was at most -4.2.
In the case of U6G A21U C93U U127G, the “polymerase ribozyme fitness (log ratio)” value is reported as -3.85.
With U6C U78G U111G U134C the “polymerase ribozyme fitness (log ratio)” value was -4.14.
In the case of C5U C57U C87A A91C, the “polymerase ribozyme fitness (log ratio)” value is reported as at most -4.2.
In the case of U6C C10G A28U C57U C63U U77A C85U G86U U144C, the “polymerase ribozyme fitness (log ratio)” value is reported as at most -4.2.
With U6A C75U C93G C131G the “polymerase ribozyme fitness (log ratio)” value was at most -4.2.
For U6C A23U U31G G62A C95U C99G G100U C114U C129U, the “polymerase ribozyme fitness (log ratio)” value was at most -4.2.
For C5U G62C G88C, the “polymerase ribozyme fitness (log ratio)” value was at most -4.2.
In the case of C5U G62A U90G A138G A142U, the “polymerase ribozyme fitness (log ratio)” value is reported as at most -4.2.
For U6A A142C, the “polymerase ribozyme fitness (log ratio)” value was -0.741.
With U7A A29G C85A C114A A121G U134C the “polymerase ribozyme fitness (log ratio)” value was at most -4.2.
For C5G A52C C85U, the “polymerase ribozyme fitness (log ratio)” value was -2.14.
For C5G G11U A17U A39U C57G A73G C79U A138G G141C U144G, the “polymerase ribozyme fitness (log ratio)” value was at most -4.2.
In the case of U6A A19G C99A, the “polymerase ribozyme fitness (log ratio)” value is reported as -2.14.
With U7A A17U G25C G88C C116A the “polymerase ribozyme fitness (log ratio)” value was at most -4.2.
In the case of C5G G68C C131U C132G U145G A150C, the “polymerase ribozyme fitness (log ratio)” value is reported as at most -4.2.
For C8A A12C, the “polymerase ribozyme fitness (log ratio)” value was -3.07.
For U6A C69U, the “polymerase ribozyme fitness (log ratio)” value was -1.1.
With C8A A17G A21U C38U G86A C99G G126U U139G the “polymerase ribozyme fitness (log ratio)” value was at most -4.2.
For U6G C93A A98G, the “polymerase ribozyme fitness (log ratio)” value was -1.61.
In the case of C5G U6G U61C C85U, the “polymerase ribozyme fitness (log ratio)” value is reported as -3.57.
With U6A A23U G83A C105U C108A the “polymerase ribozyme fitness (log ratio)” value was at most -4.2.
In the case of U6G C10A A40G A60G C75A G80C A107U G126A G133U U139G G143C, the “polymerase ribozyme fitness (log ratio)” value is reported as at most -4.2.
For U6A U33A U55G C57U C79G G92A C131U, the “polymerase ribozyme fitness (log ratio)” value was at most -4.2.
With U7G C27U A37G C43A C57A G94A the “polymerase ribozyme fitness (log ratio)” value was at most -4.2.
With U6G U15A A20G C87U the “polymerase ribozyme fitness (log ratio)” value was -0.616.
In the case of U7G A17C A39C A91G C114G, the “polymerase ribozyme fitness (log ratio)” value is reported as at most -4.2.
With U6G U7C A49G G71A C93G the “polymerase ribozyme fitness (log ratio)” value was at most -4.2.
In the case of U6C C14A A49U G50U A52G C93G C99G, the “polymerase ribozyme fitness (log ratio)” value is reported as at most -4.2.
In the case of C5G A52C C76G G81A A91U, the “polymerase ribozyme fitness (log ratio)” value is reported as at most -4.2.
For U7A C93U A115G, the “polymerase ribozyme fitness (log ratio)” value was at most -4.2.
With U7G U56A G59C U78C the “polymerase ribozyme fitness (log ratio)” value was -2.83.
In the case of U7C C14U U53A C96U U104C C116A G124U U135G, the “polymerase ribozyme fitness (log ratio)” value is reported as at most -4.2.
For C5G C43U A73U G92U U134A U144C, the “polymerase ribozyme fitness (log ratio)” value was at most -4.2.
With C5G C18G A41C G152U the “polymerase ribozyme fitness (log ratio)” value was -3.98.
In the case of U7C C93G, the “polymerase ribozyme fitness (log ratio)” value is reported as -4.04.
In the case of U7C C85U, the “polymerase ribozyme fitness (log ratio)” value is reported as -2.04.
